This note sets out measurements from PMC9329948, “Surface-Enhanced Carboxyphenyl Diazonium Functionalized Screen-Printed Carbon Electrode for the Screening of Tuberculosis in Sputum Samples”.

The target of data set [1] is T1, CFP10 antigen (Mycobacterium tuberculosis, UniProt P9WNK5 2-100). As to the kind of experiment: ELONA; no significant difference from aptamer-alone control; ELONA: antigen coated in 0.06 M carbonate pH 9.6, 3% BSA block, aptamer 2 h at room temperature, 0.01 M PBS washes; aptamer/electrode binding buffer 20 mM Tris-HCl pH 7.4, 150 mM NaCl, 2 mM MgCl2, 2 mM KCl, 2 mM CaCl2, room temperature. Particulars: protein: recombinant; label: biotin.
T1 sequence (P9WNK5 2-100): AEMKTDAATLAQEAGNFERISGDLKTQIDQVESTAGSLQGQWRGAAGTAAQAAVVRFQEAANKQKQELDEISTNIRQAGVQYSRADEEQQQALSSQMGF

For data set [2], the target named is T2, MPT64 antigen (Mycobacterium tuberculosis, UniProt P9WIN9 24-228). As to the kind of experiment: ELONA; 5 uM aptamer; antigen coated at 5 ug/mL; p < 0.0001 vs control; ELONA: antigen coated in 0.06 M carbonate pH 9.6, 3% BSA block, aptamer 2 h at room temperature, 0.01 M PBS washes; aptamer/electrode binding buffer 20 mM Tris-HCl pH 7.4, 150 mM NaCl, 2 mM MgCl2, 2 mM KCl, 2 mM CaCl2, room temperature. As to conditions: protein: recombinant; label: biotin.
T2 sequence (P9WIN9 24-228): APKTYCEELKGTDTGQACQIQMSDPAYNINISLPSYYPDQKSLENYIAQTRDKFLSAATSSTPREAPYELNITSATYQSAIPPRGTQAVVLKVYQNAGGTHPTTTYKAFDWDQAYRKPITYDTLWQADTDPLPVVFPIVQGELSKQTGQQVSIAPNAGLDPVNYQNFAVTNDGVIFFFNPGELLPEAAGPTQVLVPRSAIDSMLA

In data set [3] the target is T1, CFP10 antigen. As to the kind of experiment: amperometric sandwich aptasensor; selectivity test; read-out also needs anti-MPT64 antibody; ELONA: antigen coated in 0.06 M carbonate pH 9.6, 3% BSA block, aptamer 2 h at room temperature, 0.01 M PBS washes; aptamer/electrode binding buffer 20 mM Tris-HCl pH 7.4, 150 mM NaCl, 2 mM MgCl2, 2 mM KCl, 2 mM CaCl2, room temperature. Particulars: protein: recombinant.

Data set [4] deals with T2, MPT64 antigen. As to the kind of experiment: amperometric sandwich aptasensor; HRP anti-MPT64 antibody detection; LOD 1.11 ng/mL, linear 5-200 ng/mL; ELONA: antigen coated in 0.06 M carbonate pH 9.6, 3% BSA block, aptamer 2 h at room temperature, 0.01 M PBS washes; aptamer/electrode binding buffer 20 mM Tris-HCl pH 7.4, 150 mM NaCl, 2 mM MgCl2, 2 mM KCl, 2 mM CaCl2, room temperature. As to conditions: protein: recombinant.

On to TTTTTTTTTTGGGAGCTGATGTCGCATGGGTTTTGATCACATGA (ssDNA, biotin, position not stated) [MPT64 aptamer, biotinylated (ELONA)], for which the binding result with CFP10 antigen [1] was “no binding”; with MPT64 antigen [2], “binds”.
Consider TTTTTTTTTTGGGAGCTGATGTCGCATGGGTTTTGATCACATGA (ssDNA, 5' AmMC6) [MPT64 aptamer, 5'-amino (electrode)], for which the binding result with CFP10 antigen [3] is “no binding”; in the data set with MPT64 antigen [4], “binds”.
